Data published in patent US20150353614.

Tests used:
Test in all cases: cell_activity
[1] = target: IA (Idi-AraC DBD chimera) (Escherichia coli) (UniProt P0A9E0); settings: no mevalonate
[2] = target: IA32 L39M,S127C (Escherichia coli) (UniProt P0A9E0); settings: half the Tmax of IA; E. coli HC175
[3] = target: IA44 R267H (Escherichia coli) (UniProt P0A9E0); settings: twice the Tmax of IA; E. coli HC175

Sequence | activity ([1]; 0.36 with 10 mM mevalonate, E. coli HC175) [relative RFP] | activity (Tmax relative to IA) [2] | activity (Tmax relative to IA) [3] | activity ([1]; 0.56 with 10 mM mevalonate) [relative RFP]
TAGCATTTTTATCCATAAGATTAGCGGATCCTACCTGA (double strand) [I1I2 in PBAD] | 1 | 0.5 | 2 | 
TAGCGGATCCTACCTGAAGATTAGCATTTTTATCCATA (double strand) [I2I1 in PBAD] |  |  |  | 1.12
